The target in the assay is Mdb1 (UniProt O14079). The experiment in a line: biotin-peptide streptavidin pull-down, Coomassie stain. The note with it: reference: unphosphorylated H2A peptide; sites S129.

Turning to “H2A.1 C-terminal 13 residues, 120-132 (from UniProt P04909) pS129 (γH2A) peptide”, the “binding against the reference” value is on record as “gained”.

For the origin of these results see publication PMC4013092.
